Sequences and labels used below:
B1: glmS ribozyme (parent)
chain: AUAAAAGCGCCAGAACUACAGAAAUGUAGUUGACGAGGAGGAGGUUUAUCGAAUUUUCGGCGGAUGCCUCCAAA

± gives the standard error. This sample holds only a part of the variants without activity.

One data set covers variants of B1. The data set can be described thus: self-cleavage kobs at 640 uM GlcN6P; higher = faster cleavage; RNA array. The conditions noted are these: with glucosamine-6-phosphate. Summed up: (§1)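 Tiles bearing barcoded ribozyme variants, transcribed in situ by E. coli RNA polymerase on sequenced MiSeq chips, were imaged over ~14 h at 37 °C using a hybridised Cy3 probe. Glucosamine-6-phosphate was supplied at 40 μM to 10 mM in HEPES/KCl/Mg(OAc)2 buffer. kobs came from one- or two-exponential decay fits to normalised per-tile medians, and weighted Michaelis–Menten fits then provided kcat and KM.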
For C10A C61G A64G C68G, the “self-cleavage kobs at 640 uM GlcN6P” value came to 9.09e-05 ± 4.3e-05 s⁻¹.

Regarding C11A U30C A53C C71U, the “self-cleavage kobs at 640 uM GlcN6P” value is less than 1e-05 s⁻¹.

In the case of G9A A14C A36G G37C A39U, the “self-cleavage kobs at 640 uM GlcN6P” value is less than 1e-05 s⁻¹. With C11G G37C A39G, the “self-cleavage kobs at 640 uM GlcN6P” value is less than 1e-05 s⁻¹.

Regarding A6G G9A A33C A39U G41U A53U, the “self-cleavage kobs at 640 uM GlcN6P” value is less than 1e-05 s⁻¹.

C8A A36C C68U: the “self-cleavage kobs at 640 uM GlcN6P” value is less than 1e-05 s⁻¹. Still for that read-out and setting: the result for A14C A33C C67G reads less than 1e-05 s⁻¹; that for A6C G44A G51U, less than 1e-05 s⁻¹; that for G13A U56A C67A U69G, 0.000128 ± 3.8e-05 s⁻¹. As for G40C U65C, the “self-cleavage kobs at 640 uM GlcN6P” value was 4.51e-05 ± 1.9e-05 s⁻¹. For the variant U31A A36U A48U U69C, the “self-cleavage kobs at 640 uM GlcN6P” value is less than 1e-05 s⁻¹.

For C8U G66C C71G, the “self-cleavage kobs at 640 uM GlcN6P” value was less than 1e-05 s⁻¹.

As for A14C A15G G37C U49C, the “self-cleavage kobs at 640 uM GlcN6P” value was less than 1e-05 s⁻¹. In the case of A6C C16G G37C A39G U45G U47A, the “self-cleavage kobs at 640 uM GlcN6P” value is less than 1e-05 s⁻¹. For the variant A14G A52U C67U, the “self-cleavage kobs at 640 uM GlcN6P” value stood at 7.45e-05 ± 1.3e-05 s⁻¹. As to G29C G43U U57G, the “self-cleavage kobs at 640 uM GlcN6P” value was less than 1e-05 s⁻¹. Same read-out and setting: the figure for G38A U57A G66U C70A is 6.22e-05 ± 2.6e-05 s⁻¹; for G7A G40A A42C C67G it is less than 1e-05 s⁻¹; for A15C U45G U56C C58A C67G C68A it is 8.64e-05 ± 2.9e-05 s⁻¹. A14C U49G C68U: the “self-cleavage kobs at 640 uM GlcN6P” value was less than 1e-05 s⁻¹. As for G40C U47C C68G, the “self-cleavage kobs at 640 uM GlcN6P” value is less than 1e-05 s⁻¹.

Another data set covers variants of B1. The data set can be described thus: self-cleavage kobs at 2500 uM GlcN6P; higher = faster cleavage; RNA array. The conditions noted are these: with glucosamine-6-phosphate. Summed up: as §1
Turning to A12G G13U G60U, the “self-cleavage kobs at 2500 uM GlcN6P” value was less than 1e-05 s⁻¹. On to C34G G38A G44U G63A, for which the “self-cleavage kobs at 2500 uM GlcN6P” value was less than 1e-05 s⁻¹. Consider C8U G29U A36U, for which the “self-cleavage kobs at 2500 uM GlcN6P” value was less than 1e-05 s⁻¹. On the same count and under the same terms, the figure for G40U U47G U54C is 0.00079 ± 0.00014 s⁻¹. With G43U U47G G59C, the “self-cleavage kobs at 2500 uM GlcN6P” value was less than 1e-05 s⁻¹.

Regarding C11G G37C A39G, the “self-cleavage kobs at 2500 uM GlcN6P” value is less than 1e-05 s⁻¹. Regarding G29U U45G C71U, the “self-cleavage kobs at 2500 uM GlcN6P” value turned out to be 0.000117 ± 5e-05 s⁻¹. U46G G51U C67A: the “self-cleavage kobs at 2500 uM GlcN6P” value was less than 1e-05 s⁻¹. Regarding A15C G43A G44U G59U, the “self-cleavage kobs at 2500 uM GlcN6P” value is less than 1e-05 s⁻¹. Take U46A U56G C58U G59U: the “self-cleavage kobs at 2500 uM GlcN6P” value was less than 1e-05 s⁻¹. On the same count and under the same terms, the figure for G35C G41A G44A G66A is less than 1e-05 s⁻¹.

For G32C A64G C70A, the “self-cleavage kobs at 2500 uM GlcN6P” value was less than 1e-05 s⁻¹. Consider A6C G44A G51U, for which the “self-cleavage kobs at 2500 uM GlcN6P” value is less than 1e-05 s⁻¹. Consider C16A G29C U45C, for which the “self-cleavage kobs at 2500 uM GlcN6P” value is 0.000155 ± 3.5e-05 s⁻¹. Take G40C A64U C68U: the “self-cleavage kobs at 2500 uM GlcN6P” value was less than 1e-05 s⁻¹.

For the variant U31G G32A U46G A52U, the “self-cleavage kobs at 2500 uM GlcN6P” value is less than 1e-05 s⁻¹. For A6C C16G G37C A39G U45G U47A, the “self-cleavage kobs at 2500 uM GlcN6P” value is less than 1e-05 s⁻¹. Turning to A14G A52U C67U, the “self-cleavage kobs at 2500 uM GlcN6P” value is 0.00014 ± 3.1e-05 s⁻¹. With U47G A52C G60C C71A, the “self-cleavage kobs at 2500 uM GlcN6P” value was less than 1e-05 s⁻¹.

As to A48U G51A U57A, the “self-cleavage kobs at 2500 uM GlcN6P” value is less than 1e-05 s⁻¹. For the variant G38A U57A G66U C70A, the “self-cleavage kobs at 2500 uM GlcN6P” value turned out to be 6.05e-05 ± 2.3e-05 s⁻¹. Consider G7A G40A A42C C67G, for which the “self-cleavage kobs at 2500 uM GlcN6P” value is less than 1e-05 s⁻¹. As for A6G A14C A53G, the “self-cleavage kobs at 2500 uM GlcN6P” value amounted to 6.89e-05 ± 1.6e-05 s⁻¹. On to G40U A48U A52U, for which the “self-cleavage kobs at 2500 uM GlcN6P” value is less than 1e-05 s⁻¹.

Variants of B1 are the subject of another data set. The data set can be described thus: self-cleavage kobs at 10000 uM GlcN6P; higher = faster cleavage; RNA array. The conditions noted are these: with glucosamine-6-phosphate. Summed up:
as §1
As for A12G G13U G60U, the “self-cleavage kobs at 10000 uM GlcN6P” value is less than 1e-05 s⁻¹. Same read-out and setting: the result for U46G G51U C67A reads less than 1e-05 s⁻¹. In the case of G40C U65C, the “self-cleavage kobs at 10000 uM GlcN6P” value was 0.000172 ± 3.4e-05 s⁻¹. In the case of G40C A64U C68U, the “self-cleavage kobs at 10000 uM GlcN6P” value was less than 1e-05 s⁻¹.

These data come from the supplement of paper PMC7125110.
